Measurements as given in patent publication US20230285585A1, “TREATMENT OF PULMONARY HYPERTENSION” (PHILOGEN S.P.A., priority 2020, published 2023).

What was measured:
[1] = system: Monocrotaline (MCT) induced pulmonary hypertension (PH) in C57BL/6 mice; test: Right heart catheterization in MCT induced PH mouse model (Example 4); type: in vivo; conditions: for pressure values in the right ventricle, RVPsys (result in words): in contrast to KSF containing control immunocytokines
Excerpt: To induce Pulmonary Hypertension (PH), C57BL/6 mice (bodyweight: 25-30 g) were used. The animals were obtained from ZET facility (Zentrale Experimentelle Tierhaltung) of the University Hospital Jena (UKJ, Jena, Germany). Prior to PH induction, mice were allowed to acclimatize for at least 7 days with ad libitum access to food and water as well as controlled light/dark cycles. In this set of experiments, 50 animals were investigated divided into the following 7 experimental groups: • sham induced controls (n=10) • MCT induced PH (n=8) • MCT induced PH+MACI (n=8) • MCT induced PH+F8mIL9F8 in CrAb format (n=6) • MCT induced PH+KSFmIL9KSF in CrAb format (n=6) • MCT induced PH+F8_(IgG-HC4)-mIL9 (n=6) • MCT induced PH+KSF_(IgG-HC4)-mIL9 (n=6)
For PH induction, the Monocrotaline (MCT, Carl Roth, Germany) method was used.
The sham induced controls were injected with 30 μl NaCl not containing MCT at day 1 (single dose; intraperitoneally, i.p.). […] The other 6 experimental groups were injected with MCT (single dose; intraperitoneally, i.p.; 60 mg/kg body weight; volume 30 μl). Animals in the MCT induced PH+MACI group received the drug (Macitentan, Actelion Pharmaceuticals Ltd.) from day 14 to day 28 (once daily; per os; 15 mg/kg body weight).
Animals in the MCT induced PH+F8mIL9F8 in CrAb format group received F8mIL9F8 3 times on days 14, 16 and 18 (intravenously, i.v.; 200 μg/injection; volume 154 μl). Animals in the MCT induced PH+KSFmIL9KSF in CrAb format group received KSFmIL9KSF 3 times on days 14, 16 and 18 (intravenously, i.v.; 198 μg/injection; volume 182 μl).
Animals in the MCT induced PH+F8_(IgG-HC4)-mIL9 group received F8_(IgG-HC4)-mIL9 3 times on days 14, 16 and 18 (intravenously, i.v.; 261 μg/injection; volume 137 μl). Animals in the MCT induced PH+KSF_(IgG-HC4)-mIL9 group received KSF_IgG-HC4mIL9 3 times on days 14, 16 and 18 (intravenously, i.v.; 258 μg/injection; volume 161 μl).
On day 28 after MCT injection, mice of all experimental groups were deeply anesthetized with a single dose of 100 mg/kg body weight ketamine and 10 mg/kg body weight Xylazin in approximately 60 μl each administered i.p.
Right heart catheterization using a 1.4 F micro conductance pressure-volume catheter (Model SPR-839; Millar Instruments Inc; PowerLab system, ADInstruments Ltd., Oxford, UK) was performed via the right vena jugularis interna to measure the systolic right ventricular pressure and thereby verify the success of the experimental setting. Mice were then sacrificed in deep anesthesia and analgesia to carry out cardiac blood collection after thoracotomy and to harvest the organs.
(§1) Statistical analyses were performed using IBM SPSS statistical software, version 25.0 (IBM SPSS Statistics for Windows. Armonk, N.Y., USA). Data are expressed as mean±standard deviation. […]

[2] = system: Monocrotaline (MCT) induced pulmonary hypertension (PH) in C57BL/6 mice; test: Echocardiographic assessment in MCT induced PH mouse model (Example 4); type: in vivo; conditions: in contrast to KSF containing control immunocytokines
Method: To induce Pulmonary Hypertension (PH), C57BL/6 mice (bodyweight: 25-30 g) were used. The animals were obtained from ZET facility (Zentrale Experimentelle Tierhaltung) of the University Hospital Jena (UKJ, Jena, Germany). Prior to PH induction, mice were allowed to acclimatize for at least 7 days with ad libitum access to food and water as well as controlled light/dark cycles. […]
Echocardiographic assessment was performed on day 28 using the Vevo 770 Rodent-Ultrasound-System, Visual Sonic, Canada, 17 MHz probe RMV176. […] Body temperature and respiratory rate were continuously monitored. All surrogate parameters of right ventricular (RV) morphology and function were assessed, among others, RV basal and medial diameters (in mm), RV length (in mm), tricuspid annular plane systolic excursion (TAPSE, in mm), right atrial area (RA area, in mm^2) or main pulmonary artery diameter (MPA, in mm).
as §1

[3] = molecular target: T1, recombinant fibronectin 11A12 domain (EDA) (Homo sapiens, UniProt P02751); test: Biacore surface plasmon resonance binding analysis; conditions: SPR, BIAcore X100, CM5 chip coated with recombinant fibronectin 11A12 domain
T1 construct: recombinant fibronectin 11A12 domain
T1 sequence (P02751 1629-1905 limits assumed): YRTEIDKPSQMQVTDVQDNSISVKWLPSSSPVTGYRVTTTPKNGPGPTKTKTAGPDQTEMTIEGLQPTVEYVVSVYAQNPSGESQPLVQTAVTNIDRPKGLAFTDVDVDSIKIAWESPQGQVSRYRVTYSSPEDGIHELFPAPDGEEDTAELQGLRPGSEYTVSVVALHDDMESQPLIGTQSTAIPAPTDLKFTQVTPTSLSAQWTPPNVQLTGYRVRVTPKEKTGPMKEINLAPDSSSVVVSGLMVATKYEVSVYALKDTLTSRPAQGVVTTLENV
Method: Binding affinity was determined by surface plasmon resonance using a BIAcore X100 instrument using a CM5 chip coated with recombinant fibronectin 11A12 domain. Samples were injected as serial-dilution, using a concentration range from […] to 125 nM.

apparent KD [3] | Molecule | other results
in the nM range | F8(db)-hIL9: human IL9 conjugated to the C-terminus of the F8 diabody; SEQ ID NO: 22 | –
in the nM range | F8(scFv)-hIL9-F8(scFv): human IL9 conjugated at N- and C-terminus to an F8 scFv, CrAb format; SEQ ID NO: 18 | –
in the nM range | mIL9-F8(db): murine IL9 conjugated to the N-terminus of the F8 diabody; SEQ ID NO: 21 (protein, murine IL9 conjugated to the N-terminus of the F8 diabody (mIL9-F8(Db))) QRCSTTWGIRDTNYLIENLKDDPPSKCSCSGNVTSCLCLSVPTDDCTTPCYREGLLQLTNATQKSRLLPVFHRVKRIVEVLKNITCPSFSCEKPCNQTMAGNTLSFLKSLLGTFQKTEMQRQKSRPGGGGSGGGGSGGGGSEVQLLESGGGLVQPGGSLRLSCAASGFTFSLFTMSWVRQAPGKGLEWVSAISGSGGSTYYADSVKGRFTISRDNSKNTLYLQMNSLRAEDTAVYYCAKSTHLYLFDYWGQGTLVTVSSGGSGGEIVLTQSPGTLSLSPGERATLSCRASQSVSMPFLAWYQQKPGQAPRLLIYGASSRATGIPDRFSGSGSGTDFTLTISRLEPEDFAVYYCQQMRGRPPTFGQGTKVEIK | –

Continued, molecule first:

Molecule | apparent KD [3] | other results
F8(IgG4-HC)-mIL9: two murine IL9 moieties fused to C-termini of heavy chains of F8 IgG4; SEQ ID NOs: 61 and 62 | – | treatment effects relative to MACI (result in words) [1]: improved compared with the effects achieved by MACI; pressure values in the right ventricle, RVPsys (result in words) ([1]; listed as F8_(IgG-HC4)-mIL9): significantly reduced; pressure values in the right ventricle, RVPsys (result in words) ([1]; listed as IgG-HC4mIL9): significantly reduce; echocardiographic signs of right ventricular load and dysfunction (result in words) [2]: significantly improved a variety
hIL9-F8(db): human IL9 conjugated to the N-terminus of the F8 diabody; SEQ ID NO: 23 | in the nM range | –
F8(db)-mIL9: murine IL9 conjugated to the C-terminus of the F8 diabody; SEQ ID NO: 20 (protein, of murine IL9 conjugated to the C-terminus of the F8 diabody (F8(Db)-mIL9)) EVQLLESGGGLVQPGGSLRLSCAASGFTFSLFTMSWVRQAPGKGLEWVSAISGSGGSTYYADSVKGRFTISRDNSKNTLYLQMNSLRAEDTAVYYCAKSTHLYLFDYWGQGTLVTVSSGGSGGEIVLTQSPGTLSLSPGERATLSCRASQSVSMPFLAWYQQKPGQAPRLLIYGASSRATGIPDRFSGSGSGTDFTLTISRLEPEDFAVYYCQQMRGRPPTFGQGTKVEIKGGGGSGGGGSGGGGSQRCSTTWGIRDTNYLIENLKDDPPSKCSCSGNVTSCLCLSVPTDDCTTPCYREGLLQLTNATQKSRLLPVFHRVKRIVEVLKNITCPSFSCEKPCNQTMAGNTLSFLKSLLGTFQKTEMQRQKSRP | in the nM range | –
